The record followed here is the domain aggregation screens of Martell et al. (2025).
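Note: 20 min heating vs room temperature control held 20 min.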

This data set is described as follows: soluble fraction after stress (log2 fold change); higher = more stays soluble; pooled small domains, quantitative proteomics. The conditions noted are these: stress: 75 degC.
Turning to “HMIKLSEAEWKVMKLLWEESPKTMMQITNLLKETTGWTKHTVMTFLKRMEEKKAIHYEEGGRAKLYYP”, the “soluble fraction (log2)” value is -0.863. With “HMIKVASVDGASDELAHEIREIMPLDFPVSYFDLDIKYLHKVLNDIPAVESAAIKVTVSGVLQIDISER”, the “soluble fraction (log2)” value was found to be 0.569.

As to “HMILALAISSEEDDARIYATYADRLREAYPASARVFEGMVDEEHEHRRRLIDLFQRRFGDTIPLVRREHV”, the “soluble fraction (log2)” value was -0.446. Take “HMILNPADEEKMNLINFELQQRGLEINDKEMQYIFTHHSRDLNSLLNLAEKLDEISHQEKKSISINLIKKI”: the “soluble fraction (log2)” value was -0.0616. In the case of “HMILNWSEYTRSEIIELARDLSPDKYMIIDDINTYSKMKLLPSQAFIAEMFGSLRQFQKEAWGRE”, the “soluble fraction (log2)” value was -1.62. Take “HMILPKFNQLLGQMGENIKLARKRRKLTAVQVSERAGIARSTLYLIEKGDASVSLGAYFNVLRVLG”: the “soluble fraction (log2)” value was -1.67. The result for “HMIMEVDYGTFMKMTEENAIGRVQMDSTEIIFTDKENTQVYSTGIMYDPDLTQRLYDAGAVFA” reads -0.536; that for “HMIMGTIEKRGPFSFRIGVQVRLPDGSWEWIRDTIHVSPDLSARAARKQAEMALARLEADVYEGKRKPD”, -2.18. Turning to “HMIMLDRILKIMDYNKFTPSEFADVLEIDRSRLSHILNGRNKPSLEIVMKILEKFPEISSDWLLFGSGNML”, the “soluble fraction (log2)” value was -2.73. With “HMIMNEYEELRDRYLIGQIWKIGDLIEAKGIEGKIIQRGTNYVTFNDNNGKVHKAWLHEIKYEQ”, the “soluble fraction (log2)” value was -0.433. Consider “HMIMNKEIPVVADEFVEKEFGTGAVKLTPAHDPNDYESGERHGLEVVEVFDETGKMNDLVPEYEG”, for which the “soluble fraction (log2)” value was 0.757. As to “HMIMTGSIQEKNGKYYTVLNIKDKNGKYKKKWQTTGLPVKGNKRKAEQILRRRIAEYEANQL”, the “soluble fraction (log2)” value is -0.861. Regarding “HMIMTHSALLEKDGFDIVKVHFERPNDDGFDFLDMTLPGEIVYKSFGFSEDEILKLKRYAKNNSSLIWDF”, the “soluble fraction (log2)” value was -2.5. “HMINEDMTQSDRMELWGRLIDVVEDWLAEKGITEEDIPNEEREGVEDAAIIFGDDYDYLADRFSEVIGISR”: the “soluble fraction (log2)” value was -1.2. Take “HMINFKVKNVQDVGSRLDKFLVTNIPEFSRSKIQKHIKNGKVMVNGLLKKTGYKLEINDEINILNN”: the “soluble fraction (log2)” value was -0.521.

As to “HMINLDYILELIFEKNNKTKDKTALIEEIRGVIRASVGNRAKESLIVDFINDTDLDTITDKASIIESFFEY”, the “soluble fraction (log2)” value is -2.97. “HMINLTKVGNFISIIKLQQIWTIDELLKKVDINYDELLYLLTILSDIYSKNGEYFFDFDIDAENNKILFNN”: the “soluble fraction (log2)” value came to 0.0266.

For the sequence “HMINVGYKFKQIRENAGLTLKQVSAMSGLSVSFISQIERGVVDPSWSSLKKISAALNIKLKDLF”, the “soluble fraction (log2)” value is -2.82.

Turning to “HMIPDLPAIGENLYRERKRQQLSMAELAAASGISKAMLSQIEADKVNPTIATLWKIAHALHVDLESLISGG”, the “soluble fraction (log2)” value is -0.965. The result for “HMIPDPEKVMFDGGIRLLTQAGITEGKARSILGKWKRDHETERIIAALGAAQREGAIEPVSFIERVLRN” reads -0.24; that for “HMIPKIIDITDLNEEVREVIEEYMKRKRVEKYHIYQDSKGQIFIISGSAIIRYDSKLNNLYYL”, -2.45. Turning to “HMIPLKTEAIPVSYGDGAAIIRSLAVAFPSRTFHWDAQTRRIIGQALDEEWQVIRSLVWQLDIP”, the “soluble fraction (log2)” value was -1.83. Regarding “HMIPLSDEETILLKLLEATETHLDALIRGSQLSAAKVSVVLMGMEMKRLVKRLPGQMYQRWD”, the “soluble fraction (log2)” value was -2.13. “HMIPRNLEDLVRENQIGLVILKIVEIIGEDNIRDLDPETIYFINRILNELNLKKIRNNILSEALPPR”: the “soluble fraction (log2)” value is -1.36.

Turning to “HMIPSEQYNTALTEIGLSTRAHNSLRRAGIMTLGQLIEKTRDGLPPLPGFGDKSQVEVQDLLTGLGYPI”, the “soluble fraction (log2)” value is -0.187. For the sequence “HMIPSGISEHPISKLPLSMSIIHRLELAGIKTIGDITGENFSRLQEIPRIGKVTAKRILEAIQSYSEQLP”, the “soluble fraction (log2)” value was -0.401.

In the case of “HMIPYQDPLPKGAEESLLSKYPGFEITGVHFVNDTNFIGYKVRLERGEDREEISLDVNGKFL”, the “soluble fraction (log2)” value was -0.308. The result for “HMIQADFIPQVEQRLADRGLSMSGDVMAAFLDRAGYGLRHVSNEIEKLSLYLGDRKKVTVEDVVQMVAPVR” reads -0.381.

For “HMIQAGDLVFIWNPKKGDNFLIKVTPGMSQGTHFGQIKHTELMEREYGEGIVTPKGEVYYLLRPTLAGYTR”, the “soluble fraction (log2)” value was -1.21. The result for “HMIQIGEQIRYYRTKIGISQEALALMADINPAYIGQIERGIKSPTVNTIKKIANAMGINLHTLFT” reads -2.94. Take “HMIQKTHPALEIVKEYFSSQAASEFEAERFFNYYTSNGWLIGGKTKMKDWQAAARNWILNTAK”: the “soluble fraction (log2)” value was -0.999. As for “HMIQNEITLMLQVNGKLRGQIQVPSDASKEQIEQLAKDSEAAQKALAGASPKKIIVVPGRLVNIV”, the “soluble fraction (log2)” value was -0.792. For “HMIQQFTYAFAKDKGVVVLPGRDVLTLGMRAGADPLVLLEARRALGSSFELEPLDRDTYERTLADVFTADA”, the “soluble fraction (log2)” value is -1.39.

Take “HMIQRLNVNTEVLSTYIRNSNTPIEYLRQKLPNIDKFLKGELEPTFNQVYALSKLINIPTGLLLLKEPIS”: the “soluble fraction (log2)” value was -1.86. As for “HMIQSEQIPFSKFLKEVDSGRVVQVEIQGNNINGVLSDGSKFKTYSPNYPELVGKLSDKGVSIVASPV”, the “soluble fraction (log2)” value is 0.091.

On to “HMIQTKNVTFTINEKTKIANIPLKSLKILSQEDNRITLSYEKNSLKIDEIISYFSDKNINILDITTD”, for which the “soluble fraction (log2)” value was -1.59.

With “HMIQYRKILELHFKDISQRTISTSVGSSRNTVSDVIKRSEQLGLERLTDNMNNRWLEEFLFPEKQ”, the “soluble fraction (log2)” value was -4.15. As for “HMIRALVPGQTLHGEIVGRNGGEVQVRLAEDMILNARVDQNIYLELGKDLTFEVKNNGATLTLSPL”, the “soluble fraction (log2)” value was -0.42. For the sequence “HMIRDTTMYPVSVNGKKRYEWTVSKSISDDELKQQVLELEEIKKWIEGHEIKKLIFVPGRAINIV”, the “soluble fraction (log2)” value was -0.696.

For “HMIRDVDYNTFVSMVQEGKVGQVEIQEQNNRILFTDKDERTVYKTAMVPDSDLISRLLEAGVSTS”, the “soluble fraction (log2)” value amounted to 0.359. In the case of “HMIRTGEVVTGKVINVKEDQIILNIGFKSDGIITRNEYTNDNSLDLRTVVHEGDEIEAKVLKVNDGEGQVV”, the “soluble fraction (log2)” value is 0.401. Consider “HMIRVGRPQYKRGEFVSFDFDNGRKKTEMYGRVDVIDSYGTFGQGREVSYDIRASDGILYKHIPESSVYGF”, for which the “soluble fraction (log2)” value is -1.17. Regarding “HMIRVVSIEDQPWFVAADVLKSLGMPTDKGVGKYLLALGSDERMLTTHGQIGGKGMAVTTIISESGLY”, the “soluble fraction (log2)” value is -0.67.

As for “HMISDAEWKIMNVLWEEQPRTMMQITKELQEETGWTKHTVMTYLKRMESKKIIHYVEGEKAKLYYS”, the “soluble fraction (log2)” value was -0.133.

With “HMISDDLYQAVLDFTLTQDTISISRLQQNFNLGWPRARQLYDQLMQNGIIEPPDEANSAKGAVVIANKRG”, the “soluble fraction (log2)” value is 0.697.

On to “HMISIKEAVFPFSRFPGVDTLLGPEMKSTGEVMGLADNFGHAYAKSQIASGSKLPESGTLFVSVKNSD”, for which the “soluble fraction (log2)” value was -0.467. With “HMISKRFQIDEENAHKRIDIFLSHEFDSISRGIVQELIVKGEVLVNDKVTKRNYKLKTGDLVDITINL”, the “soluble fraction (log2)” value was -2.98. On to “HMITDQQKEQLSSLLKQAEAALAKAAANDQVLAAHKDEAVELLKSTSATSADAADLINELTELLKPYQ”, for which the “soluble fraction (log2)” value came to 0.973. On to “HMITEDQVIARIGLLSPAEKSLLKDKLERFRRLTLSEQQHLREFHSALDNHDKRTDLLNVLRKYNDWVNQL”, for which the “soluble fraction (log2)” value was -1.99. With “HMITEQEFQRVAAYVKNKAGINLNEKKVLVQGRLDSYMQRKGYSSYDEFMDRVERFPTGPEAEDLMNALTT”, the “soluble fraction (log2)” value is -0.0412. The result for “HMITFRINQQSQVGLRLDKFIVQQMPDYSRTRIQSWIKTKNILVNGEGKKSGYALEFDDLVEVTIPE” reads -4.81; that for “HMITGREMDVLEALWSSEKPLVASDIPKMKPSLSISSVQLALRNLVKKKLVEVADIVYSGTVLSRSYRP”, 0.0724; that for “HMITIDNYFNKEKELDFSSFPEALRKGHGFVSKATAHGSSWVSYHSSDAIKKTIDIYLSKLNEYLSNNAKA”, -1.08. In the case of “HMITLYDLLGVSKTASSQEIKTAFKKKALQYHPDKNDGNPDKEEIFKRINMAYQVLGQPQSRANYDFSITP”, the “soluble fraction (log2)” value was -0.483. For “HMITNMIIIMKPNASEEAIEKVKHLIESKGLQAHLSKGDEVTIVGVVGDKTRLHDSNIEISEGVDKIVNVT” the value was 0.497; for “HMITPAGVPPALLPVFDQFTLPDGTLRRGAVAAALRALYGPDAPQSGKRYQMEYDRVMAWHSQYFTSLH”, -0.759; for “HMITPKQTAETLGIATSTLRRWASEFEPFLSLRTGVKRTYTTDDITTLKRVKDLFAQGLKTEQVREAL”, -0.287. Regarding “HMITPNQAAVTLKVSTSTLRRWSSDFEPFLSPRKGVKRLYTIEDIATLKRIQGLYKQGMNTAQVQA”, the “soluble fraction (log2)” value was -2.25. The result for “HMITQQEFQQKLEALLSRAEAESFHIKKEEAESFFSGDELTGEQMKLVFDYLLSKKIIVEGYLK” reads -0.918; that for “HMITTEEVLNRIRKKVDHPATIRELQKALSIADDDRHRFRRRIRTLVASGALVRIRGNRYGLPSK”, -0.213. On to “HMITTWAGKATTDVYGRVDANPKADAVLVIKTGWTVQVVGSKTAPDGGTWYKLIYNGKTMYANSKFIVK”, for which the “soluble fraction (log2)” value was -3.65.

Take “HMITVEAPMPGKVLSVNVKAGDKVEAGDVLLILEAMKMQNEIMAPEDGTVSDVRVSAGDTVATGDVMVV”: the “soluble fraction (log2)” value was found to be 0.0808. Regarding “HMIVIMAKESSPAELEGVKNRIESHPGLRPQVFDGVERIVVGVLGSIPPDLKDEIELLPGVIEVVPISK”, the “soluble fraction (log2)” value is -0.177. For “HMIVVLKHGVTEQQMRNLIAWFKDQGVDVHVSRGIYQTVLGLVGDTSDIDVDLLRMLDIVDAVKRIT” the value was -2.1; for “HMIVVMAADSSREDLDLVQGRIEARGLRAQISQGVERIVIGVLGSLPPDLKDEMELLPGVREVLVIS”, -1.57; for “HMIYGNGVTDLKDLANGATIIIPADDSNETRALFLLQQEGLIKLPDDADAAKGVSTLDIVDGGGWVTSM”, 0.0362. Regarding “HMIYKLIADRLKNRINSDEFEVGDALPSEKALAGELEVSVMTIRKALTLLESEKLIVKRHGSGSYVARKSN”, the “soluble fraction (log2)” value is -1.77.

As for “HMIYRTTSVPIDNISTQKFNLQEGWIEMNKNEVEDFIRQKNLELVVTDSNVMLDKFALNGDPNKFKVFKY”, the “soluble fraction (log2)” value stood at 0.0778. For “HMKADTSPEAQKKIIAAFEPYSVNKDQIEKLIQRRIDSITPAQVIRLRKILASLKDGMSSPEDWFE” the value was -0.195.
